Results: patent publication US20200308228A1 (KING ABDULAZIZ UNIVERSITY, published 2020)
Entries after “also recorded” stand apart in the source; their conditions may differ. Where no end group is shown, it is not given here. [ ]: non-standard residue; d: D form. The star is where a group is joined. FITC = O=C1OC2(c3ccc(O)cc3Oc3cc(O)ccc32)c2ccc(NC(=S)*)cc21; hI = homoisoleucine, (2S)-2-amino-4-methylhexanoic acid; Chg = N[C@H](C(=O)O)C1CCCCC1; Ahx = NCCCCCC(=O)O

Columns and labels:
[1] = biological target: T1, NS3 of SEQ ID NO: 3 (NS3 domain of Hepatitis C virus genotype 4a fused to the T7 tag at the N-terminus and … (Hepatitis C virus (genotype 4a))); assay: differential static light scattering (DSLS), NS3:peptide 1:2, 2 h at room temperature
T1 construct: also called HCV NS3 genotype 4a
T1 chain: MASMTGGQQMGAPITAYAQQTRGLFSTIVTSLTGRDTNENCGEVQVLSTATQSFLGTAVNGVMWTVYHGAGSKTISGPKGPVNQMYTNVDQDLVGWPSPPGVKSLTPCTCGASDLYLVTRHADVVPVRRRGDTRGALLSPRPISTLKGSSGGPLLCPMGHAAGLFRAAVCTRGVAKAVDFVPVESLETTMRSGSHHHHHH

[2] = biological target: T1, NS3 of SEQ ID NO: 3 (NS3 domain of …); assay: differential static light scattering (DSLS)
[3] = biological target: T1, NS3 of SEQ ID NO: 3 (NS3 domain of …); assay: competition fluorescence anisotropy against 0.1 µM labelled NS4A peptide with 1.8 µM NS3
[4] = biological target: T1, NS3 of SEQ ID NO: 3 (NS3 domain of …); assay: fluorescence anisotropy, 0.1 µM labelled peptide titrated with NS3
[5] = biological target: T2, Pep-15 of SEQ ID NO: 20 (KKGSx[…])
T2 chain: KKGSGVIVGRIVLSGKK

B1: NS4A peptide of SEQ ID NO: 4 (KK-[…]-KK, comprising the native NS4A21-33 of SEQ ID NO: 2) (peptide)
peptide: KKGSVVIVGRIVLSGKK
notes: Synthetic peptide; the KK at each end is not part of NS4A
In the case of B1, the ΔTagg [1] is reported as 2.83 ° C.

KKGSAVIVGRIVLSGKK [Pep-13 of SEQ ID NO: 18 (KKGSAVIVGRIVLSGKK)]: binds [2].

Binder KKGS[Chg]VIVGRIVLSGKK [Pep-15 of SEQ ID NO: 20 (KKGSx[…])] has a Kd [3] of 70 nM and a Tagg shift [2] of 3.9 ° C.

KKGSFVIVGRIVLSGKK [Pep-11 of SEQ ID NO: 16 (KKGSFVIVGRIVLSGKK)]: binds [2].

KKGSWVIVGRIVLSGKK [Pep-12 of SEQ ID NO: 17 (KKGSWVIVGRIVLSGKK)]: binds [2].

KKGS[hI]VIVGRIVLSGKK [Pep-14 of SEQ ID NO: 19 (KKGSh[…])]: binds [2].

B2: isothiocyanate-labeled NS4A peptide of SEQ ID NO: 25 (FITC-NS4A) (peptide)
peptide: {FITC}-[Ahx]KKGSVVIVGRIVLSGKK
notes: also called fluorescein isothiocyanate-NS4A
B2 showed a Kd [4] of 169 nM.

B3: NS3 of SEQ ID NO: 3 (NS3 domain of Hepatitis C virus genotype 4a fused to the T7 tag at the N-terminus and 6-His tag at the C-terminus) (protein)
chain: MASMTGGQQMGAPITAYAQQTRGLFSTIVTSLTGRDTNENCGEVQVLSTATQSFLGTAVNGVMWTVYHGAGSKTISGPKGPVNQMYTNVDQDLVGWPSPPGVKSLTPCTCGASDLYLVTRHADVVPVRRRGDTRGALLSPRPISTLKGSSGGPLLCPMGHAAGLFRAAVCTRGVAKAVDFVPVESLETTMRSGSHHHHHH
B3 was tested, and the “protease activity (cleavage of 5FAM-substrate of SEQ ID NO: 22, fluorescence at 520 nm)” value [5] was “maintained 69.7% of the enzyme activity during the first 60 minutes; also recorded: After 60 minutes, it was observed that the activity of the enzyme completely disappeared”.
